Source: patent US20190284242A1 (University of Washington, published 2019)

T1: I52-33B
T1 construct: also called dimer component of I52-33
T1 chain: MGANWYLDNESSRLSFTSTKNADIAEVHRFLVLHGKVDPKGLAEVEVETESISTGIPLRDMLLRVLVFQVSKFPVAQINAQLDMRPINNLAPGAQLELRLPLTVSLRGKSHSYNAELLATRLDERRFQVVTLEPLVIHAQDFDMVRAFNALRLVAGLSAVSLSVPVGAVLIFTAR

B1: I32-06A (designed binder)
chain: MTDYIRDGSAIKALSFAIILAEADLRHIPQDLQRLAVRVIHACGMVDVANDLAFSEGAGKAGRNALLAGAPILCDARMVAEGITRSRLPADNRVIYTLSDPSVPELAKKIGNTRSAAALDLWLPHIEGSIVAIGNAPTALFRLFELLDAGAPKPALIIGMPVGFVGAAESKDELAANSRGVPYVIVRGRRGGSAMTAAAVNALASERE
notes: also called dimer component of I32-06
B2: I52-33A (designed binder)
chain: MAVKGLGEVDQKYDGSKLRIGILHARWNRKIILALVAGAVLRLLEFGVKAENIIIETVPGSFELPYGSKLFVEKQKRLGKPLDAIIPIGVLIKGSTMHFEYICDSTTHQLMKLNFELGIPVIFGVLTCLTDEQAEARAGLIEGKMHNHGEDWGAAAVEMATKFN
notes: also called pentamer component of I52-33

Columns and labels:
I32-06B = target: T2, I32-06B; assay: negative stain electron microscopy class averages of the assembled nanostructure
T2 construct: also called trimer component of I32-06
T2 sequence (chain, as listed by the source): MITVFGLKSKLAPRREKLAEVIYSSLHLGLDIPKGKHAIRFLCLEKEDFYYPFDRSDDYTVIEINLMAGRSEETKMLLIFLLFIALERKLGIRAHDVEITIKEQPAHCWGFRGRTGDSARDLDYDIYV

I52-33B = target: T1, I52-33B; assay: size exclusion chromatography (Superose 6 10/300) of co-expressed, purified pair

| Binder | binding result (I32-06B) | binding result (I52-33B) |
| --- | --- | --- |
| B1 | binds | – |
| B2 | – | binds |
